Here are results for five molecules from article PMC5314769, “Structural insights into dynamics of RecU–HJ complex formation elucidates key role of NTR and stalk region toward formation of reactive state” (Nucleic Acids Research, 2016).

The target in data set [1] is T1, RecU D88N D88N (Bacillus subtilis) (UniProt P39792).
T1 sequence: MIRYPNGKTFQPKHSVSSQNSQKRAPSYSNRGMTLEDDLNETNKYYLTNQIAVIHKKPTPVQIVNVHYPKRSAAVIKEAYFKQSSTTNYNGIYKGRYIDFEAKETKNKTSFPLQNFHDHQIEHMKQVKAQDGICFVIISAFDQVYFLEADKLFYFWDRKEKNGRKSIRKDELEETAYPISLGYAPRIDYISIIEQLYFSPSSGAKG
Nature of the data set: thermofluor. The settings on record: 1:1 molar ratio; Thermofluor: 100 mM MES pH 6.5, 5 ug RecU D88N per well, DNA 1:1 molar, Sypro orange, 25-100 C in 1 C steps; crystals: 0.1 M BICINE pH 9, 10% PEG 6000, 17 C ….

Data set [2] concerns the molecule itself. Nature of the data set: crystal structure; RecU D88N mixed with 12 bp palindromic DNA at 1:1.25 molar ratio; crystals in 0.1 M BICINE pH 9, 10% PEG 6000, 17°C; 3.2 Å, space group R32, four RecU chains in the asymmetric unit.
The next data set addresses T2, RecU D88N (Bacillus subtilis, UniProt P39792 1-206, D88N).
T2 sequence: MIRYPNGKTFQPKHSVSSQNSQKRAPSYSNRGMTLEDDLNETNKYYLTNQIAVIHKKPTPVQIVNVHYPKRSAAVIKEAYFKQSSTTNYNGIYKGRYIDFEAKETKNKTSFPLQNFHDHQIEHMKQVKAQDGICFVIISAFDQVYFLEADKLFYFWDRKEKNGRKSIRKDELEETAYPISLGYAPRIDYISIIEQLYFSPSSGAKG
The data set is described as follows: X-ray crystallography (3.2 A); 0.1 M BICINE pH 9, 10% PEG 6000; Thermofluor: 100 mM MES pH 6.5, 5 ug RecU D88N per well, DNA 1:1 molar, Sypro orange, 25-100 C in 1 C steps; crystals: 0.1 M BICINE pH 9, 10% PEG 6000, 17 C, protein:DNA 1:1.25. The settings on record: protein: recombinant; chain copies: 2; blunt; self-complementary, 2 strand copies.

Consider HJ 10 bp, for which, in data set [1], the binding signal was 6.7 delta Tm, C.

With HJ 11 bp, the binding signal in data set [1] is 8.2 delta Tm, C. The same measure, in the same setting: the result for HJ 12 bp (HJ24?) reads 10.1 delta Tm, C.

B1: RecU D88N, catalytically inactive mutant of the Holliday junction resolving enzyme RecU from Bacillus subtilis (enzyme, UniProt P39792 1-206, looked up)
chain: MIRYPNGKTFQPKHSVSSQNSQKRAPSYSNRGMTLEDDLNETNKYYLTNQIAVIHKKPTPVQIVNVHYPKRSAAVIKEAYFKQSSTTNYNGIYKGRYIDFEAKETKNKTSFPLQNFHDHQIEHMKQVKAQDGICFVIISAFDQVYFLEADKLFYFWDRKEKNGRKSIRKDELEETAYPISLGYAPRIDYISIIEQLYFSPSSGAKG
notes: the N-terminal region (residues 1-33), the stalk (56-89) and the cap (34-55 and 90-199) are seen in the structure
Regarding B1, the binding result in data set [2] is on record as “binds”.

B2: 12 bp palindromic duplex (dsDNA)
DNA 1: ACGCAATTGCGT
DNA 2: ACGCAATTGCGT
For the molecule B2, in the data set with RecU D88N, the binding result was “binds”.
